Measured values taken from publication PMC10838023 (Molecular microbiology, 2023).

T1: GfcR-StrepII (Haloferax volcanii (expressed in H26), UniProt Q8NKQ2 1-210)
T1 sequence: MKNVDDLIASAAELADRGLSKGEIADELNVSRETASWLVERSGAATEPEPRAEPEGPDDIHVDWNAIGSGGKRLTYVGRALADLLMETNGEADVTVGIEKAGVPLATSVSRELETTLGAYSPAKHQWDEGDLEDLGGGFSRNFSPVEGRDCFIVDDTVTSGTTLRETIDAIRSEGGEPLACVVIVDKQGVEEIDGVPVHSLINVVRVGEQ

B1: GfcR-StrepII (glucose and fructose catabolism regulator GfcR of Haloferax volcanii with a C-terminal StrepII tag) (natural protein, UniProt Q8NKQ2 1-210, looked up)
chain: T1 sequence
B2: PptfC (dsDNA)
DNA 1: GGACCTCGAAGACGTGCTGACGAACGAAACGCACGTCGAGGTGACGACCGTTCGGACCCGGTGACTCTCGGATGAACGTTTGTTAACGACCGAAACACGCAGTAACGTTCATATTCGAAAGGGTTTTTGAGCACATTTGCGTACGTTCTTTCGTAGGGGTGGCAACACTATG
DNA 2: CATAGTGTTGCCACCCCTACGAAAGAACGTACGCAAATGTGCTCAAAAACCCTTTCGAATATGAACGTTACTGCGTGTTTCGGTCGTTAACAAACGTTCATCCGAGAGTCACCGGGTCCGAACGGTCGTCACCTCGACGTGCGTTTCGTTCGTCAGCACGTCTTCGAGGTCC

Experiments:
SEC = target: the molecule itself; experiment: SEC
GfcR-StrepII = target: T1, GfcR-StrepII; experiment: EMSA

| Binder | stoichiometry N (SEC) | binding result (GfcR-StrepII) |
| --- | --- | --- |
| B1 | 4 | – |
| B2 | – | binds |
